B1: Protein ROD1 (Saccharomyces cerevisiae), Q02805 (parent)
chain: MFSSSSRPSKEPLLFDIRLRNLDNDVLLIKGPPDEASSVLLSGTIVLSITEPIQIKSLALRLFGRLRLNIPTVLQTVHGPHKRYSKFERNIYSHFWDDFNIKSYFQNLYDNHNNGKITISSKSSTNLAALPKRKRALSTASLISSNGQTSASKNYHTLVKGNYEFPFSAIIPGSLVESVEGLPNAAVTYALEATIERPKQPDLICKKHLRVIRTLAIDAVELSETVSVDNSWPEKVDYTISIPTKAIAIGSSTMINILIVPILKGLKLGPVRISLVENSQYCGSYGGVINQERMVAKLKLKDPLKHVAQIKKKRSLNEAADEGVDTDTGEFQDKWEVRALLNIPASLTKCSQDCRILSNIKVRHKIKFTISLLNPDGHISELRAALPVQLFISPFVPVNVKTSDVIERTLKTFGPSYQVTSQHDNSFSSKNFVDDSEEDVIFQRSASALQLSSMPTIVSGSTLNINSTDAEATAVADTTMVTSLMVPPNYGNHVYDRVYGEVTNEDETSASASSSAVESQAIHNIQNLYISDSNNSNNPILAPNPQIKIEDDSLNNCDSRGDSVNNSNLNLVNSNLTISENWNNNSPSANRYNNIINAGLNSPSLTPSFAHLSRRNSYSRQTSSTSLKNDLELTDLSRVPSYDKAMKSDMIGEDLPPAYPEEELGVQENKKIELERPQILHHKSTSSLLPLPGSSKSSNNLKRSSSRTHLSHSPLPRNNSGSSVSLQQLARNNTDSSFNLNLSFTSAKSSTGSRHFPFNMTTSFTSNSSSKNNSHFDKTDSTSDANKPREEENYTSATHNRRSRSSSVRSNNSNSPLRQGTGSFANLMEMFTKRDRS
B2: Protein ROG3 (Saccharomyces cerevisiae), P43602 (parent)
chain: MGFSSGKSTKKKPLLFDIRLKNVDNDVILLKGPPNEAPSVLLSGCIVLSINEPMQIKSISLRLYGKIQIDVPLERPQDASSSSLSSSPPKIRKYNKVFYNYAWDNVNLKEYLSGLRGQSGLAGSSSSSNILGTRQRAQSTSSLKSLKGSSSPSSCTLDKGNYDFPFSAILPGSLPESVESLPNCFVTYSMESVIERSKNYSDLICRKNIRVLRTISPAAVELSETVCVDNSWPDKVDYSISVPNKAVAIGSATPINISIVPLSKGLKLGSIKVVLFENYQYCDPFPPVISENRQVTELNLEDPLNESSGEFNGNGCFVNNPFFQPDHSFQDKWEIDTILQIPNSLSNCVQDCDVRSNIKVRHKLKFFIILINPDGHKSELRASLPIQLFISPFVALSIKPLSSSNLYSLFSTTNQKDENSSQEEEEEYLFSRSASVTGLELLADMRSGGSVPTISDLMTPPNYEMHVYDRLYSGSFTRTAVETSGTCTPLGSECSTVEDQQQDLEDLRIRLTKIRNQRDNLGLPPSASSAAASRSLSPLLNVPAPEDGTERILPQSALGPNSGSVPGVHSNVSPVLLSRSPAPSVSAHEVLPVPSGLNYPETQNLNKVPSYGKAMKYDIIGEDLPPSYPCAIQNVQPRKPSRVHSRNSSTTLSSSIPTSFHSSSFMSSTASPISIINGSRSSSSGVSLNTLNELTSKTSNNPSSNSMKRSPTRRRATSLAGFMGGFLSKGNKR

Variants of: B1
Settings: with rsp5_yeast RSP5, P39940
Target sequence in this assay (P39940 whole entry): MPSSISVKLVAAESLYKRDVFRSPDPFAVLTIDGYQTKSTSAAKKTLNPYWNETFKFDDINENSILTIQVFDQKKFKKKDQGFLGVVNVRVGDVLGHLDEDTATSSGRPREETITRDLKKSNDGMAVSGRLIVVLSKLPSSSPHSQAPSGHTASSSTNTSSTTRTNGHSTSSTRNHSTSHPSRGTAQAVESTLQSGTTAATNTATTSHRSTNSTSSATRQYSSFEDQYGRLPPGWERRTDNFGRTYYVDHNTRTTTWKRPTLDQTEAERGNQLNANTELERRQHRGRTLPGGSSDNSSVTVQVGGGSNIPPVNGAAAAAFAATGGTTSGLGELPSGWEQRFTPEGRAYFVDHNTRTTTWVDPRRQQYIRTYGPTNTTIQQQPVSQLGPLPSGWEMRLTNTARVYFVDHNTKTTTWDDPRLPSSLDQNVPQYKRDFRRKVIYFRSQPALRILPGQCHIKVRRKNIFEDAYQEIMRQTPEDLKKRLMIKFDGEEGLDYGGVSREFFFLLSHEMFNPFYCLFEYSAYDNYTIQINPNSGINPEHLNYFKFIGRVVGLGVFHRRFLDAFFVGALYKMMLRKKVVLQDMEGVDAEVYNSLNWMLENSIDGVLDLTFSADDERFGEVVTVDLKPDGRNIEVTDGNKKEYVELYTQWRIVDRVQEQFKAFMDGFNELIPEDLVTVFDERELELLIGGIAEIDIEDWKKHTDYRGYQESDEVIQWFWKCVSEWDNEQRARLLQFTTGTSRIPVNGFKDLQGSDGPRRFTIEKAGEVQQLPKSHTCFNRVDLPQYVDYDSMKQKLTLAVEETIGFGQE

| effect of a mutation on the interaction | Variant |
| --- | --- |
| disrupting interaction | P487Q;P488A |

Variants of: B2
Settings: with rsp5_yeast RSP5, P39940
Target sequence in this assay (P39940 whole entry): as above

| effect of a mutation on the interaction | Variant |
| --- | --- |
| disrupting interaction | C487Q;T488A |

Source: IntAct's records for PubMed 12163175
